Test [1] deals with EBOV GP[change] (Ebola virus) (UniProt Q05320).
For test [2] the target is unchanged. The source holds these as a separate data set.
The target is the same in test [3]. The source holds these as a separate data set.
For test [4] the target is unchanged. The source holds these as a separate data set.
The target is the same in test [5]. The source holds these as a separate data set.
The target is the same in test [6]. This is another data set of the same source.
Test [7] has the same target. The source holds these as a separate data set.
The target is the same in test [8]. This is another data set of the same source.
Test [9] shares this target. The source holds these as a separate data set.
Test [10] shares this target. The source holds these as a separate data set.
Test [11] has the same target. The source holds these as a separate data set.

Like-named read-outs stand apart in the source and are kept apart here.

As usually defined, the Kd is the equilibrium constant for the complex coming apart. A low value points to tighter binding.

Sequence of EBOV GP[change] (Ebola virus) (Q05320 33-501, chain 1 of 2): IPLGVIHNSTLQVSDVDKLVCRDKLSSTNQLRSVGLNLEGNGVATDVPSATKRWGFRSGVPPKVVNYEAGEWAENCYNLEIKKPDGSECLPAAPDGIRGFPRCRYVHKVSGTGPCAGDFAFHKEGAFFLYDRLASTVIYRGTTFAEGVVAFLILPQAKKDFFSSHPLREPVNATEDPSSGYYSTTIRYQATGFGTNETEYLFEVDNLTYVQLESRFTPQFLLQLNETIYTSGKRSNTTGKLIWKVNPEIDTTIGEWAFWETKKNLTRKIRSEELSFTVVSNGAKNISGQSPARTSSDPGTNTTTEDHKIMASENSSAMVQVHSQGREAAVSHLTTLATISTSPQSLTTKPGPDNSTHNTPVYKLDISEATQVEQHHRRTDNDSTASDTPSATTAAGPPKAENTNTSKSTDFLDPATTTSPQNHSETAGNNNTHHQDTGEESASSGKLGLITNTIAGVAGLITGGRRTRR
Sequence of EBOV GP[change] (Ebola virus) (Q05320 502-650, chain 2 of 2): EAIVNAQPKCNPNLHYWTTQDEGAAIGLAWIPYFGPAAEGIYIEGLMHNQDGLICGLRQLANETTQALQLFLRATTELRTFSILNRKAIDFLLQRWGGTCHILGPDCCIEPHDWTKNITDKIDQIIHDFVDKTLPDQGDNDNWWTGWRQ

B1: PE-87 H108A (antibody, V domains shown)
VH: QVQLVQSGVTLVQPGGSLRVSCAASGFTFSSYAMSWVRQAPGKGLEWVSAISGLGGSTYYADSVKGRFTISRDNSKNTLYLQMNSLRAEDTAVYYCAKDHRVWAAGYAFDYWGQGALVTVSS
VL: DIVLTQSPSTLSASVGDRVTITCRASQSISSWLAWYQQKPGEAPKLLISDASSLESGVPSRFSGSGSGTEFTLTISSLQPDDFATYYCQQYYSSPTFGGGTKVEIK
In the case of B1, the Kd in test [1] was determined as 18 nM.

B2: PE-87 Y107A (antibody, V domains shown)
VH: QVQLVQSGVTLVQPGGSLRVSCAASGFTFSSYAMSWVRQAPGKGLEWVSAISGLGGSTYYADSVKGRFTISRDNSKNTLYLQMNSLRAEDTAVYYCAKDHRVWAAGAHFDYWGQGALVTVSS
VL: DIVLTQSPSTLSASVGDRVTITCRASQSISSWLAWYQQKPGEAPKLLISDASSLESGVPSRFSGSGSGTEFTLTISSLQPDDFATYYCQQYYSSPTFGGGTKVEIK
Molecule B2 gave a dissociation constant (Kd) in test [2] of 30 nM.

B3: PE-87 F109A (antibody, V domains shown)
VH: QVQLVQSGVTLVQPGGSLRVSCAASGFTFSSYAMSWVRQAPGKGLEWVSAISGLGGSTYYADSVKGRFTISRDNSKNTLYLQMNSLRAEDTAVYYCAKDHRVWAAGYHADYWGQGALVTVSS
VL: DIVLTQSPSTLSASVGDRVTITCRASQSISSWLAWYQQKPGEAPKLLISDASSLESGVPSRFSGSGSGTEFTLTISSLQPDDFATYYCQQYYSSPTFGGGTKVEIK
Consider B3, for which the dissociation constant (Kd) in test [3] turned out to be 37 nM.

B4: PE-87 G106A (antibody, V domains shown)
VH: QVQLVQSGVTLVQPGGSLRVSCAASGFTFSSYAMSWVRQAPGKGLEWVSAISGLGGSTYYADSVKGRFTISRDNSKNTLYLQMNSLRAEDTAVYYCAKDHRVWAAAYHFDYWGQGALVTVSS
VL: DIVLTQSPSTLSASVGDRVTITCRASQSISSWLAWYQQKPGEAPKLLISDASSLESGVPSRFSGSGSGTEFTLTISSLQPDDFATYYCQQYYSSPTFGGGTKVEIK
Consider B4, for which, in test [4], the Kd was found to be 0.03 nM.

B5: PE-87 H100A (antibody, V domains shown)
VH: QVQLVQSGVTLVQPGGSLRVSCAASGFTFSSYAMSWVRQAPGKGLEWVSAISGLGGSTYYADSVKGRFTISRDNSKNTLYLQMNSLRAEDTAVYYCAKDARVWAAGYHFDYWGQGALVTVSS
VL: DIVLTQSPSTLSASVGDRVTITCRASQSISSWLAWYQQKPGEAPKLLISDASSLESGVPSRFSGSGSGTEFTLTISSLQPDDFATYYCQQYYSSPTFGGGTKVEIK
B5 registered a Kd in [5] of 4.5 nM.

B6: PE-87 V102A (antibody, V domains shown)
VH: QVQLVQSGVTLVQPGGSLRVSCAASGFTFSSYAMSWVRQAPGKGLEWVSAISGLGGSTYYADSVKGRFTISRDNSKNTLYLQMNSLRAEDTAVYYCAKDHRAWAAGYHFDYWGQGALVTVSS
VL: DIVLTQSPSTLSASVGDRVTITCRASQSISSWLAWYQQKPGEAPKLLISDASSLESGVPSRFSGSGSGTEFTLTISSLQPDDFATYYCQQYYSSPTFGGGTKVEIK
For the molecule B6, in test [6], the dissociation constant Kd came out at 4 nM.

B7: PE-87 R101A (antibody, V domains shown)
VH: QVQLVQSGVTLVQPGGSLRVSCAASGFTFSSYAMSWVRQAPGKGLEWVSAISGLGGSTYYADSVKGRFTISRDNSKNTLYLQMNSLRAEDTAVYYCAKDHAVWAAGYHFDYWGQGALVTVSS
VL: DIVLTQSPSTLSASVGDRVTITCRASQSISSWLAWYQQKPGEAPKLLISDASSLESGVPSRFSGSGSGTEFTLTISSLQPDDFATYYCQQYYSSPTFGGGTKVEIK
In test [7], B7 registered a Kd of 9.4 nM.

B8: PE-87 Y111A (antibody, V domains shown)
VH: QVQLVQSGVTLVQPGGSLRVSCAASGFTFSSYAMSWVRQAPGKGLEWVSAISGLGGSTYYADSVKGRFTISRDNSKNTLYLQMNSLRAEDTAVYYCAKDHRVWAAGYHFDAWGQGALVTVSS
VL: DIVLTQSPSTLSASVGDRVTITCRASQSISSWLAWYQQKPGEAPKLLISDASSLESGVPSRFSGSGSGTEFTLTISSLQPDDFATYYCQQYYSSPTFGGGTKVEIK
On to B8, for which, in [8], the equilibrium dissociation constant (Kd) is 5.9 nM.

B9: PE-87 D99A (antibody, V domains shown)
VH: QVQLVQSGVTLVQPGGSLRVSCAASGFTFSSYAMSWVRQAPGKGLEWVSAISGLGGSTYYADSVKGRFTISRDNSKNTLYLQMNSLRAEDTAVYYCAKAHRVWAAGYHFDYWGQGALVTVSS
VL: DIVLTQSPSTLSASVGDRVTITCRASQSISSWLAWYQQKPGEAPKLLISDASSLESGVPSRFSGSGSGTEFTLTISSLQPDDFATYYCQQYYSSPTFGGGTKVEIK
Regarding B9, the Kd in test [9] was 74 nM.

B10: PE-87 W103A (antibody, V domains shown)
VH: QVQLVQSGVTLVQPGGSLRVSCAASGFTFSSYAMSWVRQAPGKGLEWVSAISGLGGSTYYADSVKGRFTISRDNSKNTLYLQMNSLRAEDTAVYYCAKDHRVAAAGYHFDYWGQGALVTVSS
VL: DIVLTQSPSTLSASVGDRVTITCRASQSISSWLAWYQQKPGEAPKLLISDASSLESGVPSRFSGSGSGTEFTLTISSLQPDDFATYYCQQYYSSPTFGGGTKVEIK
Regarding B10, the dissociation constant (Kd) in [10] turned out to be 1.3 nM.

B11: PE-87 D110A (antibody, V domains shown)
VH: QVQLVQSGVTLVQPGGSLRVSCAASGFTFSSYAMSWVRQAPGKGLEWVSAISGLGGSTYYADSVKGRFTISRDNSKNTLYLQMNSLRAEDTAVYYCAKDHRVWAAGYHFAYWGQGALVTVSS
VL: DIVLTQSPSTLSASVGDRVTITCRASQSISSWLAWYQQKPGEAPKLLISDASSLESGVPSRFSGSGSGTEFTLTISSLQPDDFATYYCQQYYSSPTFGGGTKVEIK
B11 displayed a Kd in [11] of 1.3 nM.

The record behind these values is EP3583122A1.
